Holding throughout (assay): initial rate of NADPH consumption
What all share (format): biochemical, compost metagenome
Conditions in all cases: 80 mM cyclopropylamine, 0.3 mM NADPH, pH 7.5 (100 mM NaPi), 30 °C

Substrate in series [1]: O=CCCc1ccccc1
The source says: (§1) initial rate of NADPH consumption on BacRedAm

Substrate in series [2]: O=C/C=C/c1ccccc1
Excerpt: as §1

Substrate in series [3]: O=C1CCCCC1
Excerpt: as §1

In general, Km refers to the substrate concentration at which the rate is half of its maximum. As usually defined, the kcat is the number of substrate molecules converted per active site and unit of time at saturation.

B1: BacRedAm (compost metagenome) (protein)
chain: MREPIVSAHTERAVESRGADRGSAVTVIGLGSMGSALAGAVLEAGYPTTVWNRTAGKAEPLVRRGAARAATVAEAVSASPTVIACVLDYRALREILSTAGDALAGRTVVNLTNGTPTEARETAAWVEGHGARYLDGGIMAVPEMIGGAESLVLYSGSAEAFETVEPVLRRFGSAMYLGADPGLASLHDLALLAGMYGLFAGFLHAVALVGTEGVRATEFTSSLLIPWLQAMTATLPEAAAQIDAGDYAATGSRLDMQAVALANIVEASRSQGIRPDLMLPIQALVERRVAKGGGGEDIAAVVEEVRG
notes: recombinant, expressed in E. coli BL21, purified
As to B1, the Km in series [1] amounted to 2980 µM; in series [2], 2580 µM; in series [3] it was 13320 µM. The kcat in series [1] worked out at 1.45 s⁻¹; in series [2], 0.11 s⁻¹; in series [3], 5.12 s⁻¹.

Values taken from publication PMC9131517, “Enzymatic N-Allylation of Primary and Secondary Amines Using Renewable Cinnamic Acids Enabled by Bacterial Reductive Aminases” (ACS Sustainable Chemistry & Engineering, 2022).
